T1: cynomolgus monkey CD3 (purchased from Acro, Cat. No. CDD-C52W4) (cynomolgus monkey, UniProt Q95LI5 22-117)
T1 construct: Bought reagent
T1 sequence (looked up): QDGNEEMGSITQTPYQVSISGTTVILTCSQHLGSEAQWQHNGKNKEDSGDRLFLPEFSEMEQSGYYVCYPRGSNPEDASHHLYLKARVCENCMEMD

T2: cynomolgus monkey GPRC5D (cynomolgus monkey)
T2 chain: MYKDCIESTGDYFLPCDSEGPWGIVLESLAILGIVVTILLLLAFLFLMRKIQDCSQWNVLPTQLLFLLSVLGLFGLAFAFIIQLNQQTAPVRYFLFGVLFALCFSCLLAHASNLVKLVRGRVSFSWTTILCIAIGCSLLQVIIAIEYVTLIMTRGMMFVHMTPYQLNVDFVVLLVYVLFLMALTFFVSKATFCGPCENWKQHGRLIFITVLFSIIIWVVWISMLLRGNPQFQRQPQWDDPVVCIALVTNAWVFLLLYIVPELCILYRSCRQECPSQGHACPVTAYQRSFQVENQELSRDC


Assays:
human GPRC5D [1] = molecular target: T3, human GPRC5D (human, UniProt Q9NZD1 1-345); assay: flow cytometry on NCI-H929 cells
T3 construct: whole, on cells; also called hGPRC5D; G-protein coupled receptor family C group 5 member D

human GPRC5D [2] = molecular target: T3, human GPRC5D; assay: flow cytometry on human GPRC5D-CHOK1 cells
[3] = molecular target: T4, human CD3 on Jurkat cells (human, UniProt P07766 23-207); assay: flow cytometry (FACS) on Jurkat cells expressing hCD3
T4 construct: whole, on cells; CD3 complex on cells; also called hCD3; Jurkat cell strain

human GPRC5D [4] = molecular target: T3, human GPRC5D; assay: flow cytometry (FACS) on NCI-H929 cells expressing hGPRC5D
human GPRC5D [5] = molecular target: T3, human GPRC5D; assay: flow cytometry (FACS) on RPMI8226 cells expressing hGPRC5D
human GPRC5D [6] = molecular target: T3, human GPRC5D; assay: cell-based or functional assay
[7] = molecular target: T1, cynomolgus monkey CD3 (purchased from …); assay: SPR (Biacore 8K), CD3 immobilised on CM5 chip, bispecific antibody as analyte, 1:1 Langmuir fit
[8] = molecular target: T5, human CD3 (purchased from Acro, Cat. No. CDD-H52W1) (human, UniProt P07766 23-126); assay: as above
T5 construct: Bought reagent; also called human CD3 protein

cynomolgus monkey GPRC5D = molecular target: T2, cynomolgus monkey GPRC5D; assay: flow cytometry on cynomolgus monkey GPRC5D-CHOK1 cells
human GPRC5D [9] = molecular target: T3, human GPRC5D; assay: flow cytometry on human GPRC5D-CHOK1 cells; remark: listed apart in the source
human GPRC5A = molecular target: T6, human GPRC5A (human, UniProt Q8NFJ5 1-357); assay: flow cytometry on human GPRC5A-CHOK1 cells
T6 construct: whole, on cells; also called human GPRC5A-CHOK1 cell line
T6 sequence (Q8NFJ5 whole entry): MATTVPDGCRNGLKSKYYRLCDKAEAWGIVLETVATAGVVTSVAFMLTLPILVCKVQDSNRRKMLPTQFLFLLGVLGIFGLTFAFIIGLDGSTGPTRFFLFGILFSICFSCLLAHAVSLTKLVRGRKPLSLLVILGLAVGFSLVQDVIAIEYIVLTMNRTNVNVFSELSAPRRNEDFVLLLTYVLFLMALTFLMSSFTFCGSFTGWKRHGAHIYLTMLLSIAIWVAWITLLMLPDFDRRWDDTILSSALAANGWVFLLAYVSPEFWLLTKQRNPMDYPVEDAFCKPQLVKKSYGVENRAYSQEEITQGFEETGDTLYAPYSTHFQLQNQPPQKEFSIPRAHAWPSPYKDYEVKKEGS

T5 sequence (P07766 23-126): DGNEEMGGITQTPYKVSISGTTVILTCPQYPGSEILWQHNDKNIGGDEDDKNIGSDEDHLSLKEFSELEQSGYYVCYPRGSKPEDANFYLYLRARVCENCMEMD
T3 sequence (Q9NZD1 whole entry): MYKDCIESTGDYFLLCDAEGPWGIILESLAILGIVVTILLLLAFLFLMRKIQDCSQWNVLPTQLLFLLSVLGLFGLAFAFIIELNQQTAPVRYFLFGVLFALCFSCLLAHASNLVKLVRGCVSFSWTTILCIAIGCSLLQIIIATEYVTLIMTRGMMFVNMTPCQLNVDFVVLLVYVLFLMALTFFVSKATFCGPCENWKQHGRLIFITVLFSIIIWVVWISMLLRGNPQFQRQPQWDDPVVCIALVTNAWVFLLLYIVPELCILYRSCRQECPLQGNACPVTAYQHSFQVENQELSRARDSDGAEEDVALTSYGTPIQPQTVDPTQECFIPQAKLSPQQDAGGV
T4 sequence (P07766 23-207): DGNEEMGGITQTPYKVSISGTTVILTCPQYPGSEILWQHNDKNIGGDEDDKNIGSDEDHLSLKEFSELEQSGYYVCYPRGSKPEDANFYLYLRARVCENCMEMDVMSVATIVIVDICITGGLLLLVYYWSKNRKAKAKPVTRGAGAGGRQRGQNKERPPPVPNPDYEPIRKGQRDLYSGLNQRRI

| Binder | EC50 (human GPRC5D [1]) | EC50 (human GPRC5D [2]) | EC50 [3] | EC50 (human GPRC5D [4]) | EC50 (human GPRC5D [5]) | TDCC EC50(nM), NCI-H929 cell strain (human GPRC5D [6]) | TDCC EC50(nM), RPMI8226 cell strain (human GPRC5D [6]) | Kd [7] | koff [7] | kon [7] | Kd [8] | koff [8] | kon [8] | EC50 (cynomolgus monkey GPRC5D) | EC50 (human GPRC5D [9]) | binding result (human GPRC5A) |
| --- | --- | --- | --- | --- | --- | --- | --- | --- | --- | --- | --- | --- | --- | --- | --- | --- |
| 18CH16H2L1 (humanized mouse hybridoma-derived anti-GPRC5D antibody) (antibody, V domains shown, also called humanized clone 18CH16 antibody) VH: QVQLVQSGAEVKKPGASVKVSCKASGYTFTSYIIHWVRQAPGQGLEWIGYINPYNDGTKYNEKFKGRVTMTSDTSTSTVYMELSSLRSEDTAVYYCARGGIRAFMNYWGQGTLVTVSS VL: DIQMTQSPSSLSASVGDRVTITCKASQDVGTAVAWYQQKPGKAPKLLIYWASTRHTGVPSRFSGSGSGTDFTLTISSLQPEDFATYYCQHYISWTFGQGTKVEIK | 0.3 nM | 0.51 nM | – | – | – | – | – | – | – | – | – | – | – | – | – | – |
| Bispecific antibody 1 (bispecific antibody, human IgG1, kappa, L234A L235A, 2+1 format: two GPRC5D Fabs and one CD3 scFv placed between a Fab and the Fc; also called anti-CD3-GPRC5D bispecific antibody 1; anti-GPRC5D/CD3 bispecific antibody) heavy 1: not shown heavy 2: QVQLVQSGAEVKKPGASVKVSCKASGYTFTSYIIHWVRQAPGQGLEWIGYINPYNDGTKYNEKFKGRVTMTSDTSTSTVYMELSSLRSEDTAVYYCARGGIRAFMNYWGQGTLVTVSSASTKGPSVFPLAPSSKSTSGGTAALGCLVKDYFPEPVTVSWNSGALTSGVHTFPAVLQSSGLYSLSSVVTVPSSSLGTQTYICNVNHKPSNTKVDKKVEPKSCDKTHTCPPCPAPEAAGGPSVFLFPPKPKDTLMISRTPEVTCVVVDVSHEDPEVKFNWYVDGVEVHNAKTKPREEQYNSTYRVVSVLTVLHQDWLNGKEYKCKVSNKALPAPIEKTISKAKGQPREPQVCTLPPSRDELTKNQVSLSCAVKGFYPSDIAVEWESNGQPENNYKTTPPVLDSDGSFFLVSKLTVDKSRWQQGNVFSCSVMHEALHNRYTQKSLSLSPGK light: DIQMTQSPSSLSASVGDRVTITCKASQDVGTAVAWYQQKPGKAPKLLIYWASTRHTGVPSRFSGSGSGTDFTLTISSLQPEDFATYYCQHYISWTFGQGTKVEIKRTVAAPSVFIFPPSDEQLKSGTASVVCLLNNFYPREAKVQWKVDNALQSGNSQESVTEQDSKDSTYSLSSTLTLSKADYEKHKVYACEVTHQGLSSPVTKSFNRGEC | – | – | 22.1 nM | 1.07 nM | 7.48 nM | 0.001 nM | 0.01 nM | 16.8 nM | 0.00292 s⁻¹ | 174000 M⁻¹ s⁻¹ | 20 nM | 0.00226 s⁻¹ | 113000 M⁻¹ s⁻¹ | – | – | – |
| Bispecific antibody 2 (bispecific antibody, 1+1 format: one GPRC5D Fab, one CD3 scFv between Fab and Fc, Fc-only hole chain; also called anti-CD3-GPRC5D bispecific antibody 2; anti-GPRC5D/CD3 bispecific antibody) heavy: not shown light: DIQMTQSPSSLSASVGDRVTITCKASQDVGTAVAWYQQKPGKAPKLLIYWASTRHTGVPSRFSGSGSGTDFTLTISSLQPEDFATYYCQHYISWTFGQGTKVEIKRTVAAPSVFIFPPSDEQLKSGTASVVCLLNNFYPREAKVQWKVDNALQSGNSQESVTEQDSKDSTYSLSSTLTLSKADYEKHKVYACEVTHQGLSSPVTKSFNRGEC DKTHTCPPCPAPEAAGGPSVFLFPPKPKDTLMISRTPEVTCVVVDVSHEDPEVKFNWYVDGVEVHNAKTKPREEQYNSTYRVVSVLTVLHQDWLNGKEYKCKVSNKALPAPIEKTISKAKGQPREPQVCTLPPSRDELTKNQVSLSCAVKGFYPSDIAVEWESNGQPENNYKTTPPVLDSDGSFFLVSKLTVDKSRWQQGNVFSCSVMHEALHNRYTQKSLSLSPGK | – | – | 12.9 nM | 5.19 nM | 22.9 nM | 0.017 nM | 0.08 nM | 18.9 nM | 0.00279 s⁻¹ | 147000 M⁻¹ s⁻¹ | 18.1 nM | 0.00214 s⁻¹ | 118000 M⁻¹ s⁻¹ | – | – | – |
| 18CH-16 (chimeric mouse hybridoma-derived anti-GPRC5D antibody) (antibody, V domains shown, also called parent antibody) VH: EVQLQQSGPELVKPGASVKMSCKASGYTFTSYIIHWVKQKPGQGLEWIGYINPYNDGTKYNEKFKGKATLTSDRSSSTAYMEVSSLTSEDSAVYYCARGGIRAFMNYWGQGTSVTVSS VL: DIVMTQSHKFMSTSVGDRVSITCKASQDVGTAVAWYQQKPGQSPKLLIYWASTRHTGVPDRFTGSGSGTDFTLSISNVQSEDLADYFCQHYISWTFGGGTNLEIK | – | – | – | – | – | – | – | – | – | – | – | – | – | 4.39 nM | 3.89 nM | no binding (tested: 100 nM (initial concentration)) |

Reference: patent EP4714974A1 (Shanghai Qilu Pharmaceutical Research and Development …, dated 2026)
